Source: PMC5419085

Target: full-length human LRP1 (low-density lipoprotein receptor-related protein 1) (human)
Assay: ELISA; full-length human LRP1 (5 nM) coated on microtiter plates; biotinylated ADAMTS-5-2 (6 nM) with or without antibodies or RAP (each 100 nM); detected by AP-conjugated streptavidin; TNC buffer, 2 h, room temperature; bound amount as % of that without antibodies or RAP

- percent inhibition of ADAMTS-5 binding to LRP1 at 100 nM: 75%
Substance: receptor-associated protein (RAP) (from UniProt P30533 35-357) (natural protein)
